Laboratory results as given in patent US20120177704A1.

Target: human interleukin 12 (human) (UniProt P29459)
Test: cell-based or functional assay

UniProt P29459, sequence (P29459 23-219 limits assumed, chain 1 of 2): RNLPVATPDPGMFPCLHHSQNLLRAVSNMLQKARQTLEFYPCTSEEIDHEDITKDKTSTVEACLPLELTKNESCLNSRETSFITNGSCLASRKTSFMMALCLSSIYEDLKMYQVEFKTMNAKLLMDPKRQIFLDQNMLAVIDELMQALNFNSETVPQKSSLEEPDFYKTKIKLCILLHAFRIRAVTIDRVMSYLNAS
UniProt P29459, sequence (P29460 23-328 limits assumed, chain 2 of 2, further chain): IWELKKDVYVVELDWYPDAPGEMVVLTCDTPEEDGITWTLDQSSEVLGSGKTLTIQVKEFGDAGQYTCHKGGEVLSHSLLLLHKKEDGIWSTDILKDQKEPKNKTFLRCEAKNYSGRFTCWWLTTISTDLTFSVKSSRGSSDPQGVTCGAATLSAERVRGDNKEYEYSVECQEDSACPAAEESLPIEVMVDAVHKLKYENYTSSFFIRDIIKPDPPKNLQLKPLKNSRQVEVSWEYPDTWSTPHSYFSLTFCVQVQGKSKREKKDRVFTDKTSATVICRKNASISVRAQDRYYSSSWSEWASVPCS

- relative biological activity (mean IC50 of reference standard / IC50 of sample x 100%); inhibition of IL-12-stimulated IFN-γ production of NK-92 cells, IFN-γ measured by ELISA: 98%
Substance: monoclonal antibody ABT-874
